From publication PMC9974498 come the findings set out here.

Common to all, as to assay: crystal structure
The target of test [1] is recombinant C-terminal StrepII-tagged SbtB from Synechocystis sp. PCC 6803 (ScSbtB), wild type (Synechocystis sp. PCC 6803).
Test [2] deals with recombinant C-terminal StrepII-tagged ScSbtB variant C105A+C110A (Synechocystis sp. PCC 6803).
Test [3] has as its target recombinant C-terminal StrepII-tagged ScSbtB variant Δ104 (R-loop truncated from position 104 on) (Synechocystis sp. PCC 6803).

Consider “recombinant C-terminal StrepII-tagged SbtB from Synechocystis sp. PCC 6803 (ScSbtB), wild type (natural protein)”, for which the stoichiometry N – broadly, a count of units in the complex or per binding partner – in test [1] amounted to 3.

As for “recombinant C-terminal StrepII-tagged ScSbtB variant C105A+C110A (natural protein)”, the stoichiometry N in test [2] was found to be 3.

For the substance “recombinant C-terminal StrepII-tagged ScSbtB variant Δ104 (R-loop truncated from position 104 on) (domain or fragment)”, the stoichiometry N in test [3] was 3.
